{
  "source": "the PETadex activity labels (doi:10.1002/cbic.201800097)",
  "proteins": {"B1": {"name": "unnamed (protein)", "chain": "NPYARGPNPTAASLEASAGPFTVRSFTVSRPSGYGAGTVYYPTNAGGTVGAIAIVPGYTARQSSIKWWGPRLASHGFVVITIDTNSTLDQPSSRSSQQMAALRQVASLNGTSSSPIYGKVDTARMGVMGWSMGGGGSLISAANNPSLKAAAPQAPWDSSTNFSSVTVPTLIFACENDSIAPVNSSALPIYDSMSRNAKQFLEINGGSHSCAASGNSNQALIGKKGVAWMKRFMDNDTRYSTFACENPNSTRVSDFRTANCS"}, "B2": {"name": "unnamed (protein)", "chain": "B1 chain with Y58F, A212N"}, "B3": {"name": "unnamed (protein)", "chain": "B1 chain with W156A, A212N"}, "B4": {"name": "unnamed (protein)", "chain": "B1 chain with A180I, A212N"}, "B5": {"name": "unnamed (protein)", "chain": "B1 chain with S131A, D177A, H208A, A212N"}, "B6": {"name": "unnamed (protein)", "chain": "B1 chain with W68L, A212N"}, "B7": {"name": "unnamed (protein)", "chain": "B1 chain with C210A, A212N"}, "B8": {"name": "unnamed (protein)", "chain": "B1 chain with C174A, C210A, A212N"}, "B9": {"name": "unnamed (protein)", "chain": "B1 chain with Y58A, A212N"}, "B10": {"name": "unnamed (protein)", "chain": "B1 chain with Q90A, A212N"}, "B11": {"name": "unnamed (protein)", "chain": "MNFPRASRLMQAAVLGGLMAVSAAATAQTNPYARGPNPTAASLEASAGPFTVRSFTVSRPSGYGAGTVYYPTNAGGTVGAIAIVPGYTARQSSIKWWGPRLASHGFVVITIDTNSTLDQPSSRSSQQMAALRQVASLNGTSSSPIYGKVDTARMGVMGWSMGGGGSLISAANNPSLKAAAPQAPWDSSTNFSSVTVPTLIFACENDSIAPVNSSALPIYDSMSRNAKQFLEINGGSHSCANSGNSNQALIGKKGVAWMKRFMDNDTRYSTFACENPNSTRVSDFRTANCS"}, "B12": {"name": "unnamed (protein)", "chain": "B11 chain with N212A"}, "B13": {"name": "unnamed (protein)", "chain": "B11 chain with A180I"}},
  "key": {"PET [1]": {"substrate": "PET", "assay": "Proxy for plastic degradation [Released monomer concentration (HPLC/LC-MS) (TPA)]"}, "PET [2]": {"substrate": "PET", "assay": "Proxy for plastic degradation [Released monomer concentration (HPLC/LC-MS) (MHET)]"}, "BHET": {"substrate": "BHET", "assay": "Proxy for plastic degradation [Released monomer concentration (HPLC/LC-MS) (MHET+TPA)]"}, "[3]": {"conditions": "pH 10.5, part of the chain shown"}},
  "note": "Substitutions are numbered along the chain they refer to.",
  "data": [
    {"protein": "B1", "values": [
      {"measurement": "Proxy for plastic degradation", "setting": "PET [1]; pH 9", "value": 0, "unit": "nM"},
      {"measurement": "Proxy for plastic degradation", "setting": "PET [2]; pH 9", "value": 1.5, "unit": "nM"}
    ]},
    {"protein": "B2", "values": [
      {"measurement": "Proxy for plastic degradation", "setting": "PET [1]; pH 9", "value": 0, "unit": "nM"},
      {"measurement": "Proxy for plastic degradation", "setting": "PET [2]; pH 9", "value": 0, "unit": "nM"},
      {"measurement": "Proxy for plastic degradation", "setting": "BHET; pH 7.5", "value": 0.54, "unit": "µM"}
    ]},
    {"protein": "B3", "values": [
      {"measurement": "Proxy for plastic degradation", "setting": "PET [1]; pH 9", "value": 2, "unit": "nM"},
      {"measurement": "Proxy for plastic degradation", "setting": "PET [2]; pH 9", "value": 1.5, "unit": "nM"}
    ]},
    {"protein": "B4", "values": [
      {"measurement": "Proxy for plastic degradation", "setting": "PET [1]; pH 9", "value": 11, "unit": "nM"},
      {"measurement": "Proxy for plastic degradation", "setting": "PET [2]; pH 9", "value": 13, "unit": "nM"}
    ]},
    {"protein": "B5", "values": [
      {"measurement": "Proxy for plastic degradation", "setting": "PET [1]; pH 9", "value": 0, "unit": "nM"},
      {"measurement": "Proxy for plastic degradation", "setting": "PET [2]; pH 9", "value": 0, "unit": "nM"}
    ]},
    {"protein": "B6", "values": [
      {"measurement": "Proxy for plastic degradation", "setting": "PET [1]; pH 9", "value": 0, "unit": "nM"},
      {"measurement": "Proxy for plastic degradation", "setting": "PET [2]; pH 9", "value": 0, "unit": "nM"},
      {"measurement": "Proxy for plastic degradation", "setting": "BHET; pH 7.5", "value": 0.18, "unit": "µM"}
    ]},
    {"protein": "B7", "values": [
      {"measurement": "Proxy for plastic degradation", "setting": "PET [1]; pH 9", "value": 0, "unit": "nM"},
      {"measurement": "Proxy for plastic degradation", "setting": "PET [2]; pH 9", "value": 0, "unit": "nM"},
      {"measurement": "Proxy for plastic degradation", "setting": "BHET; pH 7.5", "value": 0.22, "unit": "µM"}
    ]},
    {"protein": "B8", "values": [
      {"measurement": "Proxy for plastic degradation", "setting": "PET [1]; pH 9, part of the chain shown", "value": 0, "unit": "nM"},
      {"measurement": "Proxy for plastic degradation", "setting": "PET [2]; pH 9, part of the chain shown", "value": 0.5, "unit": "nM"}
    ]},
    {"protein": "B9", "values": [
      {"measurement": "Proxy for plastic degradation", "setting": "PET [1]; pH 9", "value": 21, "unit": "nM"},
      {"measurement": "Proxy for plastic degradation", "setting": "BHET; pH 7.5", "value": 1.09, "unit": "µM"}
    ]},
    {"protein": "B10", "values": [
      {"measurement": "Proxy for plastic degradation", "setting": "PET [1]; pH 9", "value": 6, "unit": "nM"},
      {"measurement": "Proxy for plastic degradation", "setting": "BHET; pH 7.5", "value": 0.94, "unit": "µM"}
    ]},
    {"protein": "B11", "values": [
      {"measurement": "Proxy for plastic degradation", "setting": "PET [1]; pH 8, part of the chain shown", "value": 0, "unit": "nM"},
      {"measurement": "Proxy for plastic degradation", "setting": "PET [1]; pH 10, part of the chain shown", "value": 0, "unit": "nM"},
      {"measurement": "Proxy for plastic degradation", "setting": "PET [1]; [3]", "value": 0, "unit": "nM"},
      {"measurement": "Proxy for plastic degradation", "setting": "PET [2]; 25 °C, part of the chain shown", "value": 1300, "unit": "nM"},
      {"measurement": "Proxy for plastic degradation", "setting": "PET [2]; 30 °C, part of the chain shown", "value": 5300, "unit": "nM"},
      {"measurement": "Proxy for plastic degradation", "setting": "PET [2]; 35 °C, part of the chain shown", "value": 2200, "unit": "nM"},
      {"measurement": "Proxy for plastic degradation", "setting": "PET [2]; 40 °C, part of the chain shown", "value": 0, "unit": "nM"},
      {"measurement": "Proxy for plastic degradation", "setting": "PET [2]; pH 9, 25 °C, part of the chain shown", "value": 10.5, "unit": "nM"},
      {"measurement": "Proxy for plastic degradation", "setting": "PET [2]; pH 9, 30 °C, part of the chain shown", "value": 12.9, "unit": "nM"},
      {"measurement": "Proxy for plastic degradation", "setting": "PET [2]; pH 9, 35 °C, part of the chain shown", "value": 8, "unit": "nM"},
      {"measurement": "Proxy for plastic degradation", "setting": "PET [2]; pH 9, 40 °C, part of the chain shown", "value": 5.5, "unit": "nM"},
      {"measurement": "Proxy for plastic degradation", "setting": "PET [2]; pH 9, part of the chain shown", "value": 12700, "unit": "nM"},
      {"measurement": "Proxy for plastic degradation", "setting": "PET [2]; [3]", "value": 0, "unit": "nM"},
      {"measurement": "Proxy for plastic degradation", "setting": "BHET; pH 5, part of the chain shown", "value": 0.58, "unit": "µM"},
      {"measurement": "Proxy for plastic degradation", "setting": "BHET; pH 5.5, part of the chain shown", "value": 0.9, "unit": "µM"},
      {"measurement": "Proxy for plastic degradation", "setting": "BHET; pH 6, part of the chain shown", "value": 1.51, "unit": "µM"},
      {"measurement": "Proxy for plastic degradation", "setting": "BHET; pH 6.5, part of the chain shown", "value": 1.72, "unit": "µM"},
      {"measurement": "Proxy for plastic degradation", "setting": "BHET; pH 7, part of the chain shown", "value": 1.72, "unit": "µM"},
      {"measurement": "Proxy for plastic degradation", "setting": "BHET; pH 7.5, 25 °C, part of the chain shown", "value": 0.95, "unit": "µM"},
      {"measurement": "Proxy for plastic degradation", "setting": "BHET; pH 7.5, 30 °C, part of the chain shown", "value": 1.75, "unit": "µM"},
      {"measurement": "Proxy for plastic degradation", "setting": "BHET; pH 7.5, 35 °C, part of the chain shown", "value": 1.04, "unit": "µM"},
      {"measurement": "Proxy for plastic degradation", "setting": "BHET; pH 7.5, 40 °C, part of the chain shown", "value": 0.65, "unit": "µM"},
      {"measurement": "Proxy for plastic degradation", "setting": "BHET; pH 7.5, 45 °C, part of the chain shown", "value": 0.3, "unit": "µM"},
      {"measurement": "Proxy for plastic degradation", "setting": "BHET; pH 7.5, 50 °C, part of the chain shown", "value": 0.17, "unit": "µM"},
      {"measurement": "Proxy for plastic degradation", "setting": "BHET; pH 7.5, 55 °C, part of the chain shown", "value": 0.14, "unit": "µM"},
      {"measurement": "Proxy for plastic degradation", "setting": "BHET; pH 7.5, 60 °C, part of the chain shown", "value": 0.16, "unit": "µM"},
      {"measurement": "Proxy for plastic degradation", "setting": "BHET; pH 8, part of the chain shown", "value": 1.65, "unit": "µM"},
      {"measurement": "Proxy for plastic degradation", "setting": "BHET; pH 8.5, part of the chain shown", "value": 1.47, "unit": "µM"},
      {"measurement": "Proxy for plastic degradation", "setting": "BHET; pH 9, part of the chain shown", "value": 1.1, "unit": "µM"},
      {"measurement": "Proxy for plastic degradation", "setting": "BHET; pH 9.5, part of the chain shown", "value": 0.47, "unit": "µM"}
    ]},
    {"protein": "B12", "values": [
      {"measurement": "Proxy for plastic degradation", "setting": "PET [1]; pH 9", "value": 0, "unit": "nM"},
      {"measurement": "Proxy for plastic degradation", "setting": "PET [2]; pH 9", "value": 2, "unit": "nM"},
      {"measurement": "Proxy for plastic degradation", "setting": "BHET; pH 7.5", "value": 0.42, "unit": "µM"}
    ]},
    {"protein": "B13", "values": [
      {"measurement": "Proxy for plastic degradation", "setting": "PET [1]; pH 9", "value": 10.5, "unit": "nM"},
      {"measurement": "Proxy for plastic degradation", "setting": "PET [2]; pH 9", "value": 13.4, "unit": "nM"},
      {"measurement": "Proxy for plastic degradation", "setting": "BHET; pH 7.5", "value": 0.31, "unit": "µM"}
    ]}
  ]
}
